In patent US20220257704A1, “COMBINATION OF CHEMOTHERAPY WITH RECOMBINANT S. ROLFSII LECTIN” (Unichem Laboratories Ltd, priority 2018, published 2022):
Where “and” joins values, the source holds several entries; their conditions need not be identical. Equal entries are not always repeated.

Key:
Assay in all cases: MTT cytotoxicity assay, 48 h, alone and in combination (IC50 and Combination Index)
Type in all cases: cell-based
PANC-1 cell line = details: in combination with 5-FU; paired with 5-FU conc. of the same table row
Description: The cytotoxic effect on each combination was determined by MTT assay.
(§1) Combination Index (CI) values were determined for each drug concentration combination. The CI values were calculated based on the IC50 values using the formula as given in below.

HT-29 cell line = system: HT-29 cell line
PA-1 cell line = system: PA-1 cell line
Description: In a further study, PA-1 cells were treated with Cisplatin(0.01 μM-5 μM) in combination with SEQ ID NO: 1(1 μg/mL-20 μg/mL) for 48 h. Similarly another set of cells were treated with Paclitaxel (0.01 nM-5 nM) in combination with SEQ ID NO: 1 (1 μg/mL-20 μg/mL).

MDA-MB-231 cell line = system: MDA-MB-231 cell line
Description: The cell were kept in contact with the recombinant lectin of SEQ ID NO: 1 and the chemotherapy agent for 48 h and the cytotoxic effect (percentage cytotoxicity) was measured. The cytotoxic effect was determined by well-known colorimetric MTT assay (Mossman, T. 1983 Rapid colorimetric assay for cellular growth and survival: application to proliferation and cytotoxicity assays Journal of Immunological Methods, volume 65, pages 55-63) for assessing cell metabolic activity.
Based on percentage cytotoxicity data, IC50 values were determined using the software GraphPad Prism version 4.01.
as §1
A study was performed to determine the effect of the concentration of the recombinant lectin represented by SEQ ID NO: 1 on the IC50 of Paclitaxel for cytotoxicity in MDA-MB-231 cells. Conversely the effect of the concentration of Paclitaxel on the IC50 of the recombinant lectin represented by SEQ ID NO: 1.
Similarly another study was performed for Carboplatin in combination with the recombinant lectin of SEQ ID NO: 1.
In a further study, MDA-MB-231 cells were treated with Paclitaxel (0.001 nM-10 nM) in combination with SEQ ID NO: 1(2.5 μg/mL-80 μg/mL) for 48 h. Similarly another set of cells were treated with Carboplatin (10 μM-1000 μM) in combination with SEQ ID NO: 1 (2.5 μg/mL-80 μg/mL).

[1] = in combination with Paclitaxel, paired with Paclitaxel conc. of the same table row

B1: SEQ ID NO: 1: recombinant lectin protein, variant of the S. rolfsii lectin amino acid sequence (reported as Rec-2 in WO 2010/095143) (protein)
chain: TYKITVRVYQTNPDAFFHPVEKTVWKYANGGTWTITDDQHVLTMGGSGTSGTLRFHADNGESFTATFGVHNYKRWCDIVTNLAADETGMVINQQYYSQKNREEARERQLSNYQVKNAKGRNFQIVYTEAEGNDLHANLIIG
Conc. of SEQ ID NO: 1 showing synergistic effect (PANC-1 cell line): 5 µg/mL and 10 to 80 µg/mL | IC50 of SEQ ID NO: 1 (HT-29 cell line; 5-FU 0 μM): 25.470 µg/mL | IC50 of SEQ ID NO: 1 (HT-29 cell line; 5-FU 5 μM): 22.990 µg/mL | IC50 of SEQ ID NO: 1 (HT-29 cell line; 5-FU 10 μM): 6.374 µg/mL | IC50 of SEQ ID NO: 1 (HT-29 cell line; 5-FU 50 μM): 1.667 µg/mL | IC50 of SEQ ID NO: 1 (HT-29 cell line; 5-FU 100 μM): 1.387 µg/mL | IC50 of SEQ ID NO: 1 (HT-29 cell line; 5-FU 150 μM): 1.216 µg/mL | IC50 of SEQ ID NO: 1 (HT-29 cell line; 5-FU 200 μM): 1.334 µg/mL | IC50 of SEQ ID NO: 1 (HT-29 cell line; Irinotecan 0 μM): 18.320 µg/mL | IC50 of SEQ ID NO: 1 (HT-29 cell line; Irinotecan 0.1 μM): 73.480 µg/mL | IC50 of SEQ ID NO: 1 (HT-29 cell line; Irinotecan 1 μM): 36.280 µg/mL | IC50 of SEQ ID NO: 1 (HT-29 cell line; Irinotecan 5 μM): 23.520 µg/mL | IC50 of SEQ ID NO: 1 (HT-29 cell line; Irinotecan 10 μM): 9.995 µg/mL | IC50 of SEQ ID NO: 1 (HT-29 cell line; Irinotecan 25 μM): 8.258 µg/mL | IC50 of SEQ ID NO: 1 (HT-29 cell line; Irinotecan 50 μM): 1.395 µg/mL | Conc. of SEQ ID NO: 1 showing synergistic effect (HT-29 cell line; in combination with Irinotecan, paired with Irinotecan conc. of the same table row): 40 to 80 µg/mL and 20 µg/mL | IC50 of SEQ ID NO: 1 (PA-1 cell line; Cisplatin 0 μM): 12.070 µg/mL | IC50 of SEQ ID NO: 1 (PA-1 cell line; Cisplatin 0.01 μM): 8.520 µg/mL | IC50 of SEQ ID NO: 1 (PA-1 cell line; Cisplatin 0.1 μM): 6.033 µg/mL | IC50 of SEQ ID NO: 1 (PA-1 cell line; Cisplatin 0.5 μM): 0.912 µg/mL | IC50 of SEQ ID NO: 1 (PA-1 cell line; Cisplatin 1 μM): 0.321 µg/mL | IC50 of SEQ ID NO: 1 (PA-1 cell line; Cisplatin 5 μM): 0.0036 µg/mL | IC50 of SEQ ID NO: 1 (PA-1 cell line; Cisplatin […]): 4.455 µg/mL | IC50 of SEQ ID NO: 1 (PA-1 cell line; Paclitaxel 0 nM): 8.822 µg/mL | IC50 of SEQ ID NO: 1 (PA-1 cell line; Paclitaxel 0.01 nM): 5.794 µg/mL | IC50 of SEQ ID NO: 1 (PA-1 cell line; Paclitaxel 0.1 nM): 6.545 µg/mL | IC50 of SEQ ID NO: 1 (PA-1 cell line; Paclitaxel 0.5 nM): 3.917 µg/mL | IC50 of SEQ ID NO: 1 (PA-1 cell line; Paclitaxel 1 nM): 3.031 µg/mL | IC50 of SEQ ID NO: 1 (PA-1 cell line; Paclitaxel 5 nM): 0.709 µg/mL | IC50 of SEQ ID NO: 1 (PA-1 cell line; Paclitaxel […]): 4.893 µg/mL | Conc. of SEQ ID NO: 1 showing synergistic effect (PA-1 cell line; [1]): 1 to 20 µg/mL | IC50 of SEQ ID NO: 1 (MDA-MB-231 cell line; Carboplatin 0 μM): 14.310 µg/mL | IC50 of SEQ ID NO: 1 (MDA-MB-231 cell line; Carboplatin 10 μM): 7.188 µg/mL | IC50 of SEQ ID NO: 1 (MDA-MB-231 cell line; Carboplatin 50 μM): 3.584 µg/mL | IC50 of SEQ ID NO: 1 (MDA-MB-231 cell line; Carboplatin 100 μM): 4.290 µg/mL | IC50 of SEQ ID NO: 1 (MDA-MB-231 cell line; Carboplatin 200 μM): 2.073 µg/mL | IC50 of SEQ ID NO: 1 (MDA-MB-231 cell line; Carboplatin 500 μM): 0.523 µg/mL | IC50 of SEQ ID NO: 1 (MDA-MB-231 cell line; Carboplatin 1000 μM): 0.044 µg/mL | IC50 of SEQ ID NO: 1 (MDA-MB-231 cell line; Paclitaxel 0 nM): 19.800 µg/mL | IC50 of SEQ ID NO: 1 (MDA-MB-231 cell line; Paclitaxel 0.001 nM): 25.370 µg/mL | IC50 of SEQ ID NO: 1 (MDA-MB-231 cell line; Paclitaxel 0.01 nM): 21.220 µg/mL | IC50 of SEQ ID NO: 1 (MDA-MB-231 cell line; Paclitaxel 0.1 nM): 13.700 µg/mL | IC50 of SEQ ID NO: 1 (MDA-MB-231 cell line; Paclitaxel 1 nM): 8.720 µg/mL | IC50 of SEQ ID NO: 1 (MDA-MB-231 cell line; Paclitaxel 5 nM): 5.775 µg/mL | IC50 of SEQ ID NO: 1 (MDA-MB-231 cell line; Paclitaxel 10 nM): 2.248 µg/mL | Conc. of SEQ ID NO: 1 showing synergistic effect (MDA-MB-231 cell line; in combination with Carboplatin, paired with Carboplatin conc. of the same table row): 5 to 80 µg/mL and 2.5 µg/mL | Conc. of SEQ ID NO: 1 showing synergistic effect (MDA-MB-231 cell line; [1]): 20 to 80 µg/mL and 10 µg/mL
